According to patent US20210079056A1 (Bayer, published 2021):
Changes are numbered by the printed parent chain.

B1: TPP-11156 (antibody, human IgG1, lambda)
heavy: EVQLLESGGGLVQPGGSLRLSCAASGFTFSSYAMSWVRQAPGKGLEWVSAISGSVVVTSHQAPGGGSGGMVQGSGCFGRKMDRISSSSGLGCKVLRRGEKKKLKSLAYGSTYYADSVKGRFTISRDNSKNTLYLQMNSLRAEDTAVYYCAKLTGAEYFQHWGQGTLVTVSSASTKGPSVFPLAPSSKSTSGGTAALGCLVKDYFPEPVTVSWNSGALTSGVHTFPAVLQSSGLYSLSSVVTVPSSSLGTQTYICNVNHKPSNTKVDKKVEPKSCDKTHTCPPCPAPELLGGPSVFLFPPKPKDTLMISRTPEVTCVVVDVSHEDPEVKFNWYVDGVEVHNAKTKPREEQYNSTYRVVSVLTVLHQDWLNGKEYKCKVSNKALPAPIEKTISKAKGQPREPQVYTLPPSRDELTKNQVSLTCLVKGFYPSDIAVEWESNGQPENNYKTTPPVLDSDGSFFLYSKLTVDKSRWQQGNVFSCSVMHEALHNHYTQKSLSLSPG
light: QSVLTQPPSVSGAPGQRVTISCTGSSSNIGAGYDVHWYQQLPGTAPKLLIYGNSNRPSGVPDRFSGSKSGTSASLAITGLQAEDEADYYCQSYDSSLSGVVFGGGTKLTVLGQPKAAPSVTLFPPSSEELQANKATLVCLISDFYPGAVTVAWKADSSPVKAGVETTTPSKQSNNKYAASSYLSLTPEQWKSHRSYSCQVTHEGSTVEKTVAPTECS
B2: TPP-12897 (antibody)
heavy: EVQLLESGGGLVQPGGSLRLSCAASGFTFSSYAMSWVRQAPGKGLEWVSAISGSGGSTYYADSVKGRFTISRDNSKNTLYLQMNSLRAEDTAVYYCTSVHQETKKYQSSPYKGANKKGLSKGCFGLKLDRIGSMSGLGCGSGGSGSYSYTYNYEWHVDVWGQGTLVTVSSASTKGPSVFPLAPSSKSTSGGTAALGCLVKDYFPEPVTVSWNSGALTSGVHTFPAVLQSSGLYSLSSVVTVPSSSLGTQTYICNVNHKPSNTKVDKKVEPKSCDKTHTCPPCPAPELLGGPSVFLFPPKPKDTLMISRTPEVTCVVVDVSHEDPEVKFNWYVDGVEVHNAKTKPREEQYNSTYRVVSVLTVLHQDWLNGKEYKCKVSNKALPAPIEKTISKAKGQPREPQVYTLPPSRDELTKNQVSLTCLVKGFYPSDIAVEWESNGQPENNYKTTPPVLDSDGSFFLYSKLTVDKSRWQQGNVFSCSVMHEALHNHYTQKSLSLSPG
light: B1 light with S98D
B3: TPP-5661 (antibody)
heavy: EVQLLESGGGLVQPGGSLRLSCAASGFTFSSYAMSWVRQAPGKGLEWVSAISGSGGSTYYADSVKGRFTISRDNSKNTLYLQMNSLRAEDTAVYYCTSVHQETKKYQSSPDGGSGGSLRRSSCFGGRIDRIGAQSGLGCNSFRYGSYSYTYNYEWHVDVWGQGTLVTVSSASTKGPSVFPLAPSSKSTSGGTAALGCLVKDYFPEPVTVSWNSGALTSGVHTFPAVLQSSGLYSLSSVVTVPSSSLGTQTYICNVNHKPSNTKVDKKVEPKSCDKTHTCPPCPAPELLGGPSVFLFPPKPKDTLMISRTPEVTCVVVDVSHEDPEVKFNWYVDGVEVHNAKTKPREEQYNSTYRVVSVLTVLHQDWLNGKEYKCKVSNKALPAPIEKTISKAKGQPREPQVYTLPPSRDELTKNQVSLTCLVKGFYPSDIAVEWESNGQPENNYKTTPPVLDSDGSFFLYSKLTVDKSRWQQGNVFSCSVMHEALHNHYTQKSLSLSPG
light: B1 light
B4: TPP-9465 (antibody)
heavy: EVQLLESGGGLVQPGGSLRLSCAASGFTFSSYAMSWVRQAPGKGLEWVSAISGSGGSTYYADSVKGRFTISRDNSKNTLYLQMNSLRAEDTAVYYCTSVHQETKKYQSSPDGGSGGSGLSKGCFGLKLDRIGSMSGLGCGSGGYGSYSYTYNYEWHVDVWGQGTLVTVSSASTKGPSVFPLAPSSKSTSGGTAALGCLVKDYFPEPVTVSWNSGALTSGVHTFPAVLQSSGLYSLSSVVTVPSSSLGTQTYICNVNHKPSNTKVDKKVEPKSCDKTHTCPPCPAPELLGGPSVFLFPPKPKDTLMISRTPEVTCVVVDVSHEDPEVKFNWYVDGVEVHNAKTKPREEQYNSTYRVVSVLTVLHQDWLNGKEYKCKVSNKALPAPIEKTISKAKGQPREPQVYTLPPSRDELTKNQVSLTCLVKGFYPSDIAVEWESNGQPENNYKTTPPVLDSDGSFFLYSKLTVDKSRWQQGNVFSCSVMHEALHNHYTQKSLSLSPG
light: B1 light
B5: TPP-9902 (antibody)
heavy: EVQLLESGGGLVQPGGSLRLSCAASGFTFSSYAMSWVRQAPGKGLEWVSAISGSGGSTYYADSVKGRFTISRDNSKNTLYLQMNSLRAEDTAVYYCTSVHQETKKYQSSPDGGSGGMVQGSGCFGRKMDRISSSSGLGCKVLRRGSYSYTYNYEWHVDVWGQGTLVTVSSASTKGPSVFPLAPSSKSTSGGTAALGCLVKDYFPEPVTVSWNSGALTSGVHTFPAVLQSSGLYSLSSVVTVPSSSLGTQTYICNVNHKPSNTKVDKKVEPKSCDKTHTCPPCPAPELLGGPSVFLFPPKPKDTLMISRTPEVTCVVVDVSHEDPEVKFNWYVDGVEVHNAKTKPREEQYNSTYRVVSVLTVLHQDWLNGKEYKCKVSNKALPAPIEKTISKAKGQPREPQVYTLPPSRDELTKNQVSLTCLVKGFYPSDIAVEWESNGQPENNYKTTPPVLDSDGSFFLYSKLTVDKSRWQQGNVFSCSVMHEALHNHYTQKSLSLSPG
light: B1 light
B6: TPP-12377 (antibody)
heavy: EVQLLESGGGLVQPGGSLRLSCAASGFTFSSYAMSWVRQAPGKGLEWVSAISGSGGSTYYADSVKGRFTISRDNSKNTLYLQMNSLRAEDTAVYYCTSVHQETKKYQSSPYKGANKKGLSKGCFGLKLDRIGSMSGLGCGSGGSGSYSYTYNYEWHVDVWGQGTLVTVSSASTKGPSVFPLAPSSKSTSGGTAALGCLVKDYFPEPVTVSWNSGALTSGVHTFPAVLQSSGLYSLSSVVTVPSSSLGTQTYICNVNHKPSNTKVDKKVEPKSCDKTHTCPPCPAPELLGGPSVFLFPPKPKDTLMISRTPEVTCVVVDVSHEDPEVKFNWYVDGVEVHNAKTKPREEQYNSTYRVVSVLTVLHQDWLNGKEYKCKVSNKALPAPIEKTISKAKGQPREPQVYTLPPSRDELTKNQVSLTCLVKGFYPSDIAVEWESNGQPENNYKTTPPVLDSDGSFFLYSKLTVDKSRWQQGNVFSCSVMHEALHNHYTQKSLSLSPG
light: B1 light
B7: TPP-10992 (antibody, human IgG4 S228P, lambda)
heavy: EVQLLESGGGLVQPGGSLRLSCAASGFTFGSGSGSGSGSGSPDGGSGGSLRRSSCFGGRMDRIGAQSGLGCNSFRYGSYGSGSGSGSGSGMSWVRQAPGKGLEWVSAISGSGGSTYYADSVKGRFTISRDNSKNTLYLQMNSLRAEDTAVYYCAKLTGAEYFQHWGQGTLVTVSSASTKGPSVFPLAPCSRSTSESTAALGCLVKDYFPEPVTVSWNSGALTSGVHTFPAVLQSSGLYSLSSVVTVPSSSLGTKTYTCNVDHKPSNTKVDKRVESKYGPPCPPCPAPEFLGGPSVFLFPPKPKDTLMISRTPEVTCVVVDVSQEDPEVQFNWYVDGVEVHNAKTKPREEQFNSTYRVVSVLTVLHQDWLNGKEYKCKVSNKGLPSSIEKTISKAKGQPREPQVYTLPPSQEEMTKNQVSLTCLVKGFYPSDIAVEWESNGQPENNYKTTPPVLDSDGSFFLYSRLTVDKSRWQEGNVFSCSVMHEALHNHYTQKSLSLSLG
light: B1 light

Legend:
Assay in all cases: cell-based or functional assay
[1] = molecular target: T1, rat ANP receptor (NPR-A) (rat, UniProt P18910 29-1057)
T1 sequence (looked up): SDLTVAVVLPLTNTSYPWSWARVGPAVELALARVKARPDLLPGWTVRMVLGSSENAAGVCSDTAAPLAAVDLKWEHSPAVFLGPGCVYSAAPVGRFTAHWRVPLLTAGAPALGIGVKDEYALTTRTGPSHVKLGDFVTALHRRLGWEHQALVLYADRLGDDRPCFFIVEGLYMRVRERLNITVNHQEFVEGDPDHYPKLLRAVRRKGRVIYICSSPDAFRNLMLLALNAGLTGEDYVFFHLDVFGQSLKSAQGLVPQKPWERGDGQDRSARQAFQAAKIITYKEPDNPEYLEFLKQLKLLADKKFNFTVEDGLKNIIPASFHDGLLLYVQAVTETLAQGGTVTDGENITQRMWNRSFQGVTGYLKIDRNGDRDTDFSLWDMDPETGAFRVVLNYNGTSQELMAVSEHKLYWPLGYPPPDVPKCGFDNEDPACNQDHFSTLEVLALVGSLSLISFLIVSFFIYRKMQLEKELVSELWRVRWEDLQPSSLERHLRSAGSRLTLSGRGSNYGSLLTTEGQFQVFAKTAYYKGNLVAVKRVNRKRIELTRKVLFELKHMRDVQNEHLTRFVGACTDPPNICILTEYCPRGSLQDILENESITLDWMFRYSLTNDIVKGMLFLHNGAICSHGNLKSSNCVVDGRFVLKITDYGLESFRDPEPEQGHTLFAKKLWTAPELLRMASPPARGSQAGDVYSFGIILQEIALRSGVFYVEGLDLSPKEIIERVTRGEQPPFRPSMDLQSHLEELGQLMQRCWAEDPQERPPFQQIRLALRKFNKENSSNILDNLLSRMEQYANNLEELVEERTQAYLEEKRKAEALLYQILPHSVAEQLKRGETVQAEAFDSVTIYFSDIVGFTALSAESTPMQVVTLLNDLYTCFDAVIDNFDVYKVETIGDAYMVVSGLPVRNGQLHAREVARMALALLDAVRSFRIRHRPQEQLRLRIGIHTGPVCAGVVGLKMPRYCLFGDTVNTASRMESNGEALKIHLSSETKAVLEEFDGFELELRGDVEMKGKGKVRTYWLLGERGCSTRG

[2] = molecular target: T2, rat CNP receptor (NPR-B) (rat, UniProt P16067 17-1047)
T2 sequence (looked up): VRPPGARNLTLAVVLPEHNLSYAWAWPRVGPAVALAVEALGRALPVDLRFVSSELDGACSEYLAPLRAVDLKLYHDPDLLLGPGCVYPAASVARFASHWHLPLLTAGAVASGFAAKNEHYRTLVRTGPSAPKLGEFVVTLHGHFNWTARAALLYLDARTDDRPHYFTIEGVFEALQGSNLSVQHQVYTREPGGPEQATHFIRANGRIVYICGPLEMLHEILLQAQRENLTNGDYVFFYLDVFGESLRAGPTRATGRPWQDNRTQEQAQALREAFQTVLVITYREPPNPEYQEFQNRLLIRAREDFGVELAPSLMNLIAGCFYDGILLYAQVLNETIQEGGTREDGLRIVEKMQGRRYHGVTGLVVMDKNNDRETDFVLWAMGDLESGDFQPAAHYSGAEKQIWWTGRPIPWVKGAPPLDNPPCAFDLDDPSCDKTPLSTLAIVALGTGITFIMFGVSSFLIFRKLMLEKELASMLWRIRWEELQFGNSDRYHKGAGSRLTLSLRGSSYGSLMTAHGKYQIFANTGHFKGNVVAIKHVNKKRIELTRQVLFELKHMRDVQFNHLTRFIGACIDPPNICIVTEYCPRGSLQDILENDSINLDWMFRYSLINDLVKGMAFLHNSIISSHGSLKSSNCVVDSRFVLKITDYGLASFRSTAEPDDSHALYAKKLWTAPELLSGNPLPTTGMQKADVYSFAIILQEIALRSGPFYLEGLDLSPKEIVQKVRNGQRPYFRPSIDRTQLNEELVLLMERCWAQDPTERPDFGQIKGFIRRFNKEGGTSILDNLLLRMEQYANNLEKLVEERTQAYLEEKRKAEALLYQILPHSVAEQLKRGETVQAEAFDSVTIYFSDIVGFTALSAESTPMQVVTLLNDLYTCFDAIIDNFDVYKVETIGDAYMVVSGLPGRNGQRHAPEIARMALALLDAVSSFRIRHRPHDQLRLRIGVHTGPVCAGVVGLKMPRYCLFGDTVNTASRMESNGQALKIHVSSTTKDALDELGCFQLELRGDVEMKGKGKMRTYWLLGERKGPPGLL

[3] = molecular target: T3, human NPRA (human, UniProt P16066 33-1061)
T3 sequence (looked up): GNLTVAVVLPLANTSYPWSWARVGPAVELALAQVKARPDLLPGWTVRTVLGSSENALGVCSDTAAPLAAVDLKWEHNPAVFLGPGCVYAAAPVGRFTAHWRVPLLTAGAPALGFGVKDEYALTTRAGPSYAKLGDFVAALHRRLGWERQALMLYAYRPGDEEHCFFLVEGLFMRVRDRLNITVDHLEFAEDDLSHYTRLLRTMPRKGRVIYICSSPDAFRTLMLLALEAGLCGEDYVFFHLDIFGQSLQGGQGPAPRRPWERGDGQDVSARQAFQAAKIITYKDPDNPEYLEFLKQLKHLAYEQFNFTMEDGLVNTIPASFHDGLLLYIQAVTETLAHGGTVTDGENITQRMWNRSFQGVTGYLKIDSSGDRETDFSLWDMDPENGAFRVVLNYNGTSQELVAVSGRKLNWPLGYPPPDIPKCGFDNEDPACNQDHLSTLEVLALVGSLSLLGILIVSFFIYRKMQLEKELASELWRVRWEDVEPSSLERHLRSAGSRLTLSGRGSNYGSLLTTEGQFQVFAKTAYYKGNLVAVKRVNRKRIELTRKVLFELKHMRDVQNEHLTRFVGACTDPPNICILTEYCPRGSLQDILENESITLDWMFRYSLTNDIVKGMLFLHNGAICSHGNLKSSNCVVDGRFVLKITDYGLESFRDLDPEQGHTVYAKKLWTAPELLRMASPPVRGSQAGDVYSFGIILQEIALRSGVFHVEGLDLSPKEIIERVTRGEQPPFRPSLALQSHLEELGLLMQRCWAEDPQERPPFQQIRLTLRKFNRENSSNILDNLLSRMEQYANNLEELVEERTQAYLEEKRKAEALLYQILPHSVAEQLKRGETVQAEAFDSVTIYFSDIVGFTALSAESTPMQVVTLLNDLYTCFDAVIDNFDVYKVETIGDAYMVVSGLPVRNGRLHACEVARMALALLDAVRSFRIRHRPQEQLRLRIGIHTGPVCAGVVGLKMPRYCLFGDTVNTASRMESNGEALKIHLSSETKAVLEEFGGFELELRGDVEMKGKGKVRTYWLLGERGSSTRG

Binder | EC50, fluorescence of cGMP reporter cells [1] [nM] | EC50, luminescence of cGMP reporter cells [2] [nM] | also measured
B1 | 1200 |  | 
B2 |  | 10 | 
B3 | 17 |  | log EC50 ics, cGMP assay, stable hNPRA-CHO k1 cells [3]: -8.8 log M; log EC50 pcs, cGMP assay, stable hNPRA-CHO k1 cells, average [3]: -9.2 log M; log EC50 pcs, cGMP assay, transient hNPRA-HEK293 cells, average [3]: -9 log M
B4 |  | 5.2 | 
B5 | 2300 |  | 
B6 |  | 4.1 | 
B7 | 180 |  | 
